Measurements taken from the supplement of paper PMC9170038.

What follows are sequences tested on MS2 coat protein (assay: apparent KD of MS2 coat protein; higher = weaker reporter binding). Settings: Eterna round: R107; input ligand: theophylline 20 uM.
How it was run: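 Values are apparent KD, taken as the median for each design of fits to normalised binding curves from individual clusters. The designed RNA switches were transcribed on-chip from Illumina sequencing clusters and exposed to SNAP-549-labelled MS2 coat protein at twofold increasing amounts from 0.7 or 1.5 nM to 3 µM. Titration used 100 mM Tris-HCl pH 7.5, 80 mM KCl and 4 mM MgCl2, without or with constant ligand.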

| Sequence | apparent KD of MS2 coat protein |
| --- | --- |
| CGGACAUGAGGAUCACCCAUGUCGUCGACGCGAGGACCGGUACGGCCGCCACUCGCAUGCCAAUGAGCGCAUGCGGCCUGGGUAU [Exclusion Tryp A GF5] | 29 nM |
| AGGUAUGAUCCGGAUACCAGCGAACAUGAGGAUCACCCAUGUGACCUGAGAUAGGCUCUACGCCCUUGGCAGCCGCGAUCGCAGA [Same State Theophylline B GF11] | 14.2 nM |
| UUUUAGCAUCGAAGGAGCGCUGGUAGGUGACACAUGAGGAUCACCCAUGUGCUCCUUGCCGAGCAGGUAGGUCGCGAUGCUAUUU [SSAB NP+V+V2 #8] | 62.9 nM |
| GCCGGGCCCUCGGCCGCCACUGAGAGAGUCGUGUGAACAUGAGGAUCACCCAUGUAAUAUAUAUACAGGACCGGGAGGGCCCGGC [4.W] | 21.8 nM |
| AGACGAGAAGAGGUUUACCCAUGUACAGAAGGAGCGUCGUUGACGACAGGUAGGUCGCUGGAAACAUGAGGAUCACCCAUGUUGA [#06 Exclusion - Arginine A] | 49.1 nM |
| AAGGUGAUCCCAGAUACCAGCUCAACAUGAGGAUCACCCAUGUACGGGACGAAAGUCCCGGGCCCUUGGCAGCUGGGUUGCCAAG [SSTheo B #19] | 299 nM |
| CGAGUAAGUUCAAUCGAAUAACGGUUUUCGCGAGGACCGGUACGGCCGCCACUCGUGUGAUAUCACACAUGAGGAUCACCCAUGU [3'end-1] | 77.1 nM |
| UUGUGGCGCUCGGCCGCCACUCCGACAUGAGGAUCACCCAUGUUCUACAUGAGGAUCACCCAUGUGAGGACCGGGAGACACAACC [Exclusion Tryptophan B GF12] | 102 nM |
| UUUGAGAUAACAGAUACCAGCGUGUUAUAAAACAUGAGGAUCACCCAUGUAGUGAUCAAGCGCCCUUGGCAGCUGGUGUUUUAGG [7.H] | 383 nM |
| UGGGUAGCAUAGCUUGAUAGCUACACUGAAGGAGCGAGGAUAACCUCAGGUAGGUCGCAGACAUGAGGAUCACCCAUGUAGAUGG [Same State Arginine A GF18] | 359 nM |
| AACAUGAGGAUCACCCAUGUCUGAACUGAAGGAGCGCUAAACAAGGCAGGUAGGUCGCGGAAUUUUGUGUGCAUAUGCAUAUGGG [9.J] | 35.3 nM |
| CCGGCCAAUUAGAAAUUAAUUGGCCGGAAACGAGGACCGGUACGGCCGCCACUCGUGGCGGGAGAAACAUGAGGAUCACCCAUGU | 54.7 nM |
| UACAUGAGGAUCACCCAUGUAUUGCCGGUACGAGGACCGGUACGGCCGCCACUCGGAGCAUGAGGAUCACCCAUGUGCUGCUAUG [Same State Trypophan A GF 24] | 67.1 nM |
| CGACGAUACCUGGAUACCAGCGACAUGAGGAUCACCCAUGUAUGUGGAUCAGCCAUGAUAUGCCCUUGGCAGCCACCAAAGUCGG [IIIMULLIN] | 24.1 nM |
| GACAUGAGGAUCACCCAUGUACCGCGAGAAGGAGCGCGGAUAAACGCAGGUAGGUCGCUCGUGGGCUUGUAUUCAAUCGUAAGCU [Anlaaranan] | 187 nM |
| UUUACAUGAGGAUCACCCAUGUGCCAUGAUACCAGACAUGAAAAUGUCCCUUGGCAGCAUGAAAGAUCCACGUCGGAAACGACGG [Krpole] | 248 nM |
| UCCUCCUCCGCAAGGAGGAGGAGUUGCGAUACCAGCACGGAAACGUGCCCUUGGCAGCGCACAUGAGGAUCACCCAUGUCAUGUU [#1 Exclusion - Theophylline A Attempt #9 (HarryS)] | 23.8 nM |
| CUCCGAGGCUAUACUAUACGCCUUUGUGAUACCAGAAUAAAUAUAUUCCCUUGGCAGCAUCACAUGAGGAUCACCCAUGUGCCAU [SSTheo A #12] | 27.7 nM |
| CCUGCGUUUCUUUUCUUUCGCAGGAAUGAUACCAGUAGGGAAACCUACCCUUGGCAGCAUGGGACAUGAGGAUCACCCAUGUAAU [SSThA NP+V+V2 #2] | 346 nM |
| CGCAACCCUAAGGGAUUGUGGUUAUUAGAUACCAGUAUGAUGCAAUACCCUUGGCAGCUAAUACAUGAGGAUCACCCAUGUUGCG [Th A Ex t2] | 20.2 nM |

Same assay, conditions: Eterna round: R107; input ligand: theophylline 2 mM

| Sequence | apparent KD of MS2 coat protein |
| --- | --- |
| AAUCGUAAGGCGGCCGCCACUACACAUGAGGAUCACCCAUGUCUCGCGGGCUUGCGUUGGGAUAGUAGGACCGGGCCAGUAAUAA [Exclusion - Tryptophan B (Freestyle 13)] | 28.3 nM |
| ACAUGAGGCUCACCCAUGUGUAGUGGGUGGCGAGGACCGGUACGGCCGCCACUCGGCAACAUGAGGAUCACCCAUGUAAGGCCCU [RNA Blob] | 148 nM |
| AUUCAUGGAAACAUGACAUACAUAUCCGGUCGAGGACCGGUACGGCCGCCACUCGUUUGGAGGCACAUGAGGAUCACCCAUGUUA [SS Tryp A #8] | 25.9 nM |
| UAAUAAUUCCUCAUGUCACGAGUGGCAUAACGAGGACCGGUACGGCCGCCACUCGAACAUGAGGAUCACCCAUGUAGCCACUCGA [M'-T'-T-MS2-T'' - Design 4] | 474 nM |
| ACAUGAGGAUCACCCAUGUAGUGGCACGAUACCAGCUGAUCCCGUGGCCCUUGGCAGCGUCCGGUGUGGUGCGCCGGGAUGGAGC [ZSZMULLIN] | 40.7 nM |
| GCACAUGAGGAUCACCCAUGUACAACUGAAGGAGCGAGACAGAACUCAGGUAGGUCGCAGAAUGCACAAUAGCAUACGACAUGGG [Exclusion Arginine A GF20] | 23.8 nM |
| GCCUGGGAUACGGCCGCCACUACAUGAGGAUCACCCAUGUAAUAUUUAUUAGAAGAGAGGGUAUGUAGGACCGGGUAAGGAAGGC [e-trypB-0] | 22.5 nM |
| ACAUGAGGAUCACCCAUGUUUGAUGUUCCUCGAGGACCGGUACGGCCGCCACUCGAACGAGUGGCACGCGAGUGCGCACUCGCGU [aTa] | 15.6 nM |
| CAUGUGAAAAUAAGAAGAAGAAGAAUAAAUCGAGGACCGGUACGGCCGCCACUCGUCGAAUCACAUGAGGAUCACCCAUGUAGCC [Tryptofun] | 69 nM |
| CGGACAUGAGGAUCACCCAUGUCGUCGACGCGAGGACCGGUACGGCCGCCACUCGCAUGCCAAUGAGCGCAUGCGGCCUGGGUAU [Exclusion Tryp A GF5] | 21 nM |
| AGGUAUGAUCCGGAUACCAGCGAACAUGAGGAUCACCCAUGUGACCUGAGAUAGGCUCUACGCCCUUGGCAGCCGCGAUCGCAGA [Same State Theophylline B GF11] | 9.63 nM |
| UUUUAGCAUCGAAGGAGCGCUGGUAGGUGACACAUGAGGAUCACCCAUGUGCUCCUUGCCGAGCAGGUAGGUCGCGAUGCUAUUU [SSAB NP+V+V2 #8] | 73.3 nM |
| GCCGGGCCCUCGGCCGCCACUGAGAGAGUCGUGUGAACAUGAGGAUCACCCAUGUAAUAUAUAUACAGGACCGGGAGGGCCCGGC [4.W] | 13.9 nM |
| AGACGAGAAGAGGUUUACCCAUGUACAGAAGGAGCGUCGUUGACGACAGGUAGGUCGCUGGAAACAUGAGGAUCACCCAUGUUGA [#06 Exclusion - Arginine A] | 59.7 nM |
| CGAGUAAGUUCAAUCGAAUAACGGUUUUCGCGAGGACCGGUACGGCCGCCACUCGUGUGAUAUCACACAUGAGGAUCACCCAUGU [3'end-1] | 135 nM |
| UUGUGGCGCUCGGCCGCCACUCCGACAUGAGGAUCACCCAUGUUCUACAUGAGGAUCACCCAUGUGAGGACCGGGAGACACAACC [Exclusion Tryptophan B GF12] | 134 nM |
